Results from patent US20250163116A1, “NEW METHOD TO TREAT INFECTIOUS DISEASES” (INSERM (INSTITUT NATIONAL DE LA SANTÉ ET DE LA RECHERCHE …, priority 2022, published 2025).

How the values were obtained:
[1] = test system: HDMEC infected with N. meningitidis 2C4.3; assay: Caspase-3/7 apoptosis detection in infected HDMECs (IncuCyte); format: cell-based, human; details: Caspase-3/7 reagent, real time over 9 h, 1 μg/mL
Protocol: FIG. 1. Exogenous ANGPTL4 exerts protective effects on dermal microvascular endothelial cells infected by N. meningitidis. A. HDMECs were infected with Nm 2C4.3 for 30 min and treated with 1 μg/mL of recombinant human ANGPTL4 for 2 h 30. Cells were fixed and stained for cellular actin, VE-cadherin and DAPI and analyzed by fluorescent microscopy. Quantifications of VE-cadherin enrichment at intercellular junctions and of intercellular spaces area were performed on 30 fields with Image J software. Kruskal-Wallis test ** P<0.001; P<0.0001. B. HDMEC were either uninfected or infected with N. meningitidis 2C4.3 for 30 min and treated with 1 μg mL−1 of recombinant human ANGPTL4, its N-terminal portion (nANGPTL4) or its C-terminal portion (cANGPTL4) for 2 h 30. Caspase-3/7 reagent was added to detect apoptosis in real time over 9 h using the IncuCyte® Live-Cell Analysis System

[2] = test system: HDMECs infected with S. pneumoniae TIGR4; assay: Integrity of HDMECs infected with S. pneumoniae; format: cell-based, human; details: 1 μg/mL for 2 h after 30 min infection
Protocol: FIG. 6: ANGPTL4 protects dermal microvascular endothelial cells from infection by S. pneumoniae. HDMECs were infected with S. pneumoniae TIGR4 for 30 min and treated with 1 μg/mL of recombinant human ANGPTL4 for 2 h. Cells were fixed and stained for cellular actin, VE-cadherin and DAPI and analyzed by fluorescent microscopy. Quantifications of VE-cadherin enrichment at intercellular junctions was performed on 30 fields with Image J software. Kruskal-Wallis test *** P<0.0001.
To address whether ANGPTL-4 could also provide vascular protection from Gram-positive bacteria, we investigated the effect of ANGPTL-4 on HDMECs exposed to infection by the Gram-positive bacterium Streptococcus pneumoniae, one of the major causative agents of pneumonia, sepsis, meningitis and other morbidities.

[3] = test system: HDMECs infected with N. meningitidis; assay: Release of inflammatory cytokines and markers of vascular inflammation and endothelial alteration by infected HDMECs; format: cell-based, human; details: data not shown
From the text: (§1) In contrast to brain microvascular endothelial cells that resist to meningococcal infection, the integrity of dermal microvascular endothelial cell (HDMECs) monolayer was massively impaired upon infection, as observed with the loss of adherens junctions and cell detachment (data not shown). Since HDMEC poorly produces ANGPTL4 as compared to HBMEC (data not shown), we analysed whether the addition of recombinant human ANGPTL4 might exert a protective effect on these cells. […] Additionally, while infection was accompanied by the massive release of inflammatory cytokines (TNF-α, IL-6, IL-8), markers of vascular inflammation (E-selectin, ICAM-1, VCAM-1), and markers of endothelial cell alteration (Endoglin, Thrombomodulin), all these markers were reduced by 35 to 80% upon treatment with ANGPTL4 (data not shown).

[4] = test system: SCID mice grafted with human skin infected with Nm 2C4.3; assay: Outcome of meningococcal infection in SCID mice grafted with human skin (survival, with or without antibiotics); format: in vivo
Protocol: A-D, SCID mice grafted with human skin were infected intravenously with Nm 2C4.3 wild-type strain (5×10^6 bacteria); 2 h after bacterial challenge, mice received recombinant human ANGPTL4 (1 μg, intravenously), cefotaxime (200 mg kg-1, intraperitoneally) alone or in combination with ANGPTL4 or vehicle as a control. 18 h following bacterial challenge, ANGPTL4 (1 μg) and cefotaxime (200 mg kg-1) were re-administered. This experiment was performed twice with n=3 or 4 mice per group, using skin from two different donors. A, A schematic representation of the protocol used in vivo. B, Bacteraemia 4, 18, 48 and 72 h post-infection (mean±s.e.m.). C, Survival curve: * P=0.0275; two-sided log-rank Mantel-Cox survival analysis. D, Thrombosis within the skin grafts at 4 h post-infection was assessed by immunofluorescence analysis and quantified as described in FIG. 8 (error bars show mean±s.e.m.; 40 vessels per mouse were analysed; n=4 mice per group; *** P<0.001; two-tailed Student's t-test.
Six-week-old CB17/Icr-Prkdcscid female mice were obtained from Janvier Labs. Human skin tissues were obtained from adult patients undergoing plastic surgery in the Service de Chirurgie Plastique et Reconstructive of the Groupe Hospitalier Saint-Joseph. […] Experimental procedures were performed as previously described in accordance with the guidelines of the Institut National de la Santé et de la Recherche Médicale and conformed to the European ethical legislation (Directive 2010/63/EU). The experimental protocol was approved by the Animal Experimentation Ethics Committee of the Université Paris Descartes (consent forms CEEA34.O.J.L.039.12 and 2018012515596498). […] A skin flap was created and a full thickness human skin graft was placed onto the wound bed. The transplants were held in place with 6-0 non-absorbable monofilament suture materials, and the flap was then sutured above the transplant. Grafted mice were infected 4-6 weeks after human skin transplantation. N. meningitidis was grown overnight at 37° C. on GCB agar plates prepared without iron and supplemented with 15 μM deferoxamine (Desferal, Novartis). Bacterial colonies were harvested and cultured in RPMI media with 1% BSA medium and 0.06 μM deferoxamine with gentle agitation to reach the exponential phase of growth. Bacteria were then resuspended in physiological saline solution. Mice were infected intravenously with 200 μl (5×10^6 bacteria) of this bacterial suspension. A 10 mg dose of human holotransferrin (R&D Systems) was administered intraperitoneally just before infection. Mice were killed at 4 h after infection. Human skin grafts were carefully collected using a sterile cutter. The tissue was washed in PBS and fixed overnight at 4° C. in 4% paraformaldehyde in phosphate buffer. After washing in phosphate buffer, the specimens were embedded in OCT medium and then frozen at −80° C. Sections of the dermis (7 μm thick) were immobilized on Superfrost Plus microscope slides and subjected to immunofluorescence analysis. Sections were incubated with the primary antibodies for 1 h in PBS/3% BSA then DAPI was added to Alexa-conjugated secondary antibodies for 1 h. After additional washing, coverslips were mounted in glycergel (Dako) and were further analysed using a slide scanner (Lamina, Perkin Elmer). Analysis of the images was performed using ImageJ software (NIH). […]
We then analysed whether ANGPTL4 could provide a beneficial effect when administered with antibiotics.

[5] = test system: Src kinase and VE-cadherin phosphorylation; assay: Src kinase and VE-cadherin phosphorylation in infected HDMECs; format: cell-based, human; details: added 30 min after initiation of infection
From the text: as §1

[6] = test system: HDMECs infected with Nm 2C4.3; assay: Integrity of HDMEC monolayers infected with N. meningitidis (VE-cadherin at intercellular junctions, immunofluorescence); format: cell-based, human; details: uninfected HDMECs

B1: ANGPTL4: Recombinant human ANGPTL4 (Angiopoietin-like 4), full length, SEQ ID NO: 1, purchased from R&D Systems (protein, listed as Homo sapiens)
chain: MSGAPTAGAALMLCAATAVLLSAQGGPVQSKSPRFASWDEMNVLAHGLLQLGQGLREHAERTRSQLSALERRLSACGSACQGTEGSTDLPLAPESRVDPEVLHSLQTQLKAQNSRIQQLFHKVAQQQRHLEKQHLRIQHLQSQFGLLDHKHLDHEVAKPARRKRLPEMAQPVDPAHNVSRLHRLPRDCQELFQVGERQSGLFEIQPQGSPPFLVNCKMTSDGGWTVIQRRHDGSVDFNRPWEAYKAGFGDPHGEFWLGLEKVHSITGDRNSRLAVQLRDWDGNAELLQFSVHLGGEDTAYSLQLTAPVAGQLGATTVPPSGLSVPFSTWDQDHDLRRDKNCAKSLSGGWWFGTCSHSNLNGQYFRSIPQQRQKLKKGIFWKTWRGRYYPLQATTMLIQPMAAEAAS
In the case of B1, the “cell apoptosis induced by meningococcal infection” value [1] is reported as “inhibited cell apoptosis”, the “endothelial integrity (cell junction organization) upon S. pneumoniae infection” value [2] is reported as “preserved endothelial integrity” and the “reduction of TNF-α, IL-6, IL-8, E-selectin, ICAM-1, VCAM-1, Endoglin, Thrombomodulin release” value [3] is reported as 35 to 80%. The “mice surviving the infection” value ([4]; 1 μg/mouse i.v., 2 h post-infection, all control mice died) was 15%, the “signs of thrombosis and vascular leakage in human dermal vessels of grafts” value ([4]; at the time of death, data not shown) was “reduced signs of thrombosis and vascular leakage” and the “Src kinase and VE-cadherin phosphorylation” value [5] was “significantly reduced”. For the same molecule, the “effect on organization of the adherens junctions formed by HDMECs” value [6] was “no significant effect”.
